B1: LINE1-mini (parent)
chain: GGCAGAGCUCAACACAGCGUGGCAAAGUGGCUGUGGCUAGACUGCC

Variants of: B1
Assay: self-cleavage, relative activity (ratio to wild type); higher = more cleavage; in vitro, sequencing; the parent is a self-cleaving ribozyme

Row | Variant | self-cleavage
1 | G7U U28C | 0.05
2 | G7U U28A | 0.03
3 | G7U U28G | 0.07
4 | G7U U34C | 0.09
5 | G7U U34A | 0.08
6 | G7U U34G | 0.05
7 | G7U A41C | 0.24
8 | G7U A41G | 0.09
9 | G7U A41U | 0.21
10 | G7U G21A | 0.14
11 | G7U G21C | 0.08
12 | G7U G21U | 0.1
13 | G7U A24G | 0.06
14 | G7U A24U | 0.07
15 | G7U A24C | 0.06
16 | C8G G21A | 0.32
17 | G7U G29U | 0.15
18 | G7U G29A | 0.06
19 | G7U G29C | 0.03
20 | C8A U38C | 0.2
21 | C8A U38G | 0.07
22 | C8A U38A | 0.26
23 | G7U C10A | 0.04
24 | G7U C10G | 0.03

Row | Variant | self-cleavage
25 | G7U C10U | 0.04
26 | G7U C23A | 0.06
27 | G7U C23U | 0.06
28 | G7U C23G | 0.08
29 | C8A C31G | 0.15
30 | C8A C31U | 0.21
31 | C8A C31A | 0.36
32 | C8A G27C | 0.12
33 | C8A G27A | 0.17
34 | C8A G27U | 0.16
35 | G7U G19U | 0.05
36 | G7U G19C | 0.05
37 | G7U G19A | 0.07
38 | G7U G44A | 0.09
39 | G7U G44U | 0.2
40 | G7U G44C | 0.13
41 | G7U A12U | 0.07
42 | G7U A12G | 0.04
43 | G7U A12C | 0.02
44 | G7U A39U | 0.1
45 | G7U A39C | 0.19
46 | G7U A39G | 0.06
47 | C8A G40U | 0.34
48 | C8A G40C | 0.22

Row | Variant | self-cleavage
49 | C8A G40A | 0.27
50 | G7U C37A | 0.05
51 | G7U C37G | 0.01
52 | G7U C37U | 0.03
53 | C8A C45A | 0.7
54 | C8A C45U | 0.32
55 | C8A C45G | 0.28
56 | G7U A26C | 0.24
57 | G7U A26G | 0.05
58 | G7U A26U | 0.34
59 | G7C G36A | 0.2
60 | G7C G36C | 0.1
61 | G7C G36U | 0.1
62 | C8A G33C | 0.28
63 | C8A G33A | 0.16
64 | C8A G33U | 0.18
65 | C8A C46U | 0.43
66 | C8A C46A | 0.35
67 | C8A C46G | 0.33
68 | C8G A14U | 0.08
69 | C8G A14C | 0.11
70 | C8G A14G | 0.08
71 | C8A G29U | 0.43
72 | C8A G29C | 0.14

Row | Variant | self-cleavage
73 | C8A G29A | 0.26
74 | G7U A16C | 0.09
75 | G7U A16U | 0.12
76 | G7U A16G | 0.16
77 | C8G G19C | 0.05
78 | C8G G19U | 0.04
79 | C8G G19A | 0.15
80 | G7U C18U | 0.14
81 | G7U C18A | 0.08
82 | G7U C18G | 0.14
83 | C8G G17U | 0.07
84 | C8G G17C | 0.04
85 | C8G G17A | 0.08
86 | C8A A11C | 0.05
87 | C8A A11U | 0.03
88 | C8A A11G | 0.04
89 | C8A U34A | 0.25
90 | C8A U34G | 0.34
91 | C8A U34C | 0.26
92 | C8A C13G | 0.36
93 | C8A C13U | 0.9
94 | C8A C13A | 0.67
95 | G7C G40A | 0.13
96 | G7C G40C | 0.05

Row | Variant | self-cleavage
97 | G7C G40U | 0.26
98 | G7C G35C | 0.06
99 | G7C G35U | 0.18
100 | G7C G35A | 0.08
101 | G7U C15A | 0.16
102 | G7U C15G | 0.09
103 | G7U C15U | 0.1
104 | C8A C18U | 0.27
105 | C8A C18G | 0.15
106 | C8A C18A | 0.37
107 | C8G A24C | 0.09
108 | C8G A24U | 0.3
109 | C8G A24G | 0.15
110 | G7C U32C | 0.07
111 | G7C U32A | 0.05
112 | G7C U32G | 0.05
113 | C8A U32G | 0.45
114 | C8A U32A | 0.16
115 | C8A U32C | 0.23
116 | G7U C46G | 0.09
117 | G7U C46A | 0.19
118 | G7U C46U | 0.03
119 | C8A C10U | 0.08
120 | C8A C10G | 0.02

Row | Variant | self-cleavage
121 | C8A C10A | 0.04
122 | C8G A25C | 0.11
123 | C8G A25U | 0.26
124 | C8G A25G | 0.1
125 | G7U U9C | 0.04
126 | G7U U9G | 0.09
127 | G7U U9A | 0.23
128 | C8G A16C | 0.11
129 | C8G A16G | 0.11
130 | C8G A16U | 0.06
131 | G7U U32G | 0.11
132 | G7U U32A | 0.08
133 | G7U U32C | 0.22
134 | C8A U43G | 0.11
135 | C8A U43A | 0.14
136 | C8A U43C | 0.17
137 | C8G C18U | 0.1
138 | C8G C18G | 0.08
139 | C8G C18A | 0.04
140 | C8A A39C | 0.32
141 | C8A A39U | 0.45
142 | C8A A39G | 0.08
143 | G7U G27A | 0.07
144 | G7U G27U | 0.08

Row | Variant | self-cleavage
145 | G7U G27C | 0.1
146 | C8A G21U | 0.23
147 | C8A G21A | 0.63
148 | C8A G21C | 0.21
149 | C8A A24C | 0.31
150 | C8A A24U | 0.34
151 | C8A A24G | 0.38
152 | C8A U9G | 0.03
153 | C8A U9A | 0.24
154 | C8A U9C | 0.14
155 | G7C G44C | 0.18
156 | G7C G44U | 0.15
157 | G7C G44A | 0.09
158 | C8G A12C | 0.02
159 | C8G A12G | 0.03
160 | C8G A12U | 0.13
161 | C8A G44C | 0.23
162 | C8A G44U | 0.43
163 | C8A G44A | 0.45
164 | G7U G33A | 0.13
165 | G7U G33U | 0.13
166 | G7U G33C | 0.15
167 | C8A U20A | 0.14

— the RNAGym collection of RNA variant scans (doi:10.7554/elife.90254)
